Data: patent US6107048

B1: Rab25 C-terminal variable region synthetic peptide (peptide)
peptide: KVSKQIQNSPRSNAIALGSAQAGQEPGPGQKR
B2: Rab11 C-terminal variable region synthetic peptide (peptide)
peptide: QKQMSDRRENDMSPSNNVVPIHVPPTTENKPKVQ

Tests used:
[1] = biological target: monoclonal antibody 12C3; experiment: competition ELISA: peptide inhibits binding of 12C3 to recombinant Rab25
[2] = biological target: monoclonal antibody 8H10; experiment: competition ELISA: peptide inhibits binding of 8H10 to recombinant Rab11

Binder	IC60 [1]	IC50 [2]
B1	1 µg/mL	
B2		1 µg/mL
